Assay results published in paper PMC7040017.

Biological target: 11-A-12 recombinant fibronectin fragment, containing the EDA domain

fold reduction of the EC50 of NF-κB reporter activity of the CTLL-2 reporter cell line in the presence of EDA (coated 11-A-12 fibronectin) against no EDA: 5 fold
Substance: F8 single-chain variable Fragment (scFv) linked to a single unit of murine GITRL (from UniProt Q7TS55 46-170)
